Columns and labels:
[1] = target: T1, NEPv (NEP G399V/G714K) (Homo sapiens, UniProt P08473, G400V/G715K); assay: Inhibition of Aβ1–40 cleavage activity, fluorescence polarisation; type: biochemical
T1 construct: DNA encoding amino acids 52–749 of human NEP variants was amplified by PCR; made in house; host or cells: CHO suspension cells (transient, secreted)
Experimental: (§1) The effect of inhibitors on NEP activity was determined using the above fluorescence polarisation assay to measure the rate of Aβ1–40 cleavage with a substrate concentration of 10 µM, an enzyme concentration of 20 nM and inhibitor concentrations in the range 2 nM to 100 µM.

[2] = target: T2, wild-type NEP (Homo sapiens, UniProt P08473); assay: as above; type: biochemical; conditions: enzyme wild-type NEP 20 nM; Aβ1–40 substrate 10 µM
T2 construct: DNA encoding amino acids 52–749 of human NEP variants was amplified by PCR; made in house; host or cells: CHO suspension cells (transient, secreted)
T2 sequence (P08473 53-750): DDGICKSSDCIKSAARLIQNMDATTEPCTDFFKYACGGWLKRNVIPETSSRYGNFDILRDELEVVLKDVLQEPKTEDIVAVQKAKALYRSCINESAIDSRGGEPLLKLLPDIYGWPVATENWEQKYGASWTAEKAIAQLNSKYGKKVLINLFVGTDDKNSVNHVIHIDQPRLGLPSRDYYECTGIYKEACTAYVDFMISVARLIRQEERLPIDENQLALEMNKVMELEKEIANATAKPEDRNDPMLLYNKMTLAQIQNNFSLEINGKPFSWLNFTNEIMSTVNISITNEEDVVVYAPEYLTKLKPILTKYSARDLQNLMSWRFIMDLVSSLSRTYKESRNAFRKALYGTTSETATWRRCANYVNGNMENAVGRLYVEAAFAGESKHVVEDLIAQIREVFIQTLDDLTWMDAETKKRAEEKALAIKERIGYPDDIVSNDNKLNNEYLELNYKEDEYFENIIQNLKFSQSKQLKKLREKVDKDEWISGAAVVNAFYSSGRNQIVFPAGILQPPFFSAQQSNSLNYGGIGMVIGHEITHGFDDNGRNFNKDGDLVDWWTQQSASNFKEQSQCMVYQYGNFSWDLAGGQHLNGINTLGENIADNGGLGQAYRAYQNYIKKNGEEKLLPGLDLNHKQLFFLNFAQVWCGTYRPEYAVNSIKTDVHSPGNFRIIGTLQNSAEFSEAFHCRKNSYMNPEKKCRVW
Experimental: as §1

[3] = target: NEP G399V (Homo sapiens, UniProt P08473, G400V); assay: biochemical
Sequence of NEP G399V (P08473 53-750 G400V): as the sequence (P08473 53-750) above, with G348V counted along it
Experimental: as §1

[4] = target: NEP G714K (Homo sapiens, UniProt P08473, G715K); assay: biochemical
Sequence of NEP G714K (P08473 53-750 G715K): as the sequence (P08473 53-750) above, with G663K counted along it
Experimental: as §1

[5] = test system: Aβ1–40; assay: Endpoint degradation assay with ELISA read-out; type: biochemical, human; conditions: 1 hour at room temperature; Aβ40 ELISA
Experimental: (§2) Supplementary file pone.0104001.s001.tif: Figure S1 Degradation of Aβ1–40 and Aβ1–42 by NEP wild-type and NEPv. Measurement of the degredation of Aβ1–40 (A) and Aβ1–42 (B) was performed by incubating peptide and either wild-type NEP (▪) or NEPv (Δ) for 1 hour at room temperature. The reaction was stopped by the addition of 1.10-phenanthroline to a final concentration of 10 µM. 50 µl (Aβ40 analysis) or 100 µl (Aβ42 analysis) of the reaction mix was transferred to an ELISA plate. Aβ40 and Aβ42 concentrations after degradation were determined using Invitrogen human Aβ40 ELISA kit (Invitrogen, California, US), and Innotest β-amyloid RUO (1–42) ELISA (Innogenetics, Gent, Belgium). […] (TIF) Click here for additional data file.

[6] = target: T3, Aβ1–42 (Homo sapiens, UniProt P05067); assay: Endpoint degradation assay with ELISA read-out; type: biochemical; conditions: 1 hour at room temperature; Aβ42 ELISA
T3 construct: Aβ 1-42^a
T3 sequence (P05067 672-713): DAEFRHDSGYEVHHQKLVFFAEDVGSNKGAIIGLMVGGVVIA
Experimental: as §2

[7] = test system: Endothelin-1; assay: Steady-state kinetics of endothelin-1 cleavage, stopped assay with RP-HPLC; type: biochemical; conditions: substrate Endothelin-1 (unlabelled); RP-HPLC, 10 min at 37°C
Experimental: Kinetic parameters for cleavage of endothelin-1 by NEP were determined using a stopped assay in which the amount of substrate cleaved was measured using reversed-phase HPLC (RP-HPLC). Endothelin-1 was incubated at 12.5–200 µM in the presence of wild type NEP or NEPv and reactions were stopped after 10 min at 37°C by the addition of an equal volume of 1∶1∶1 water:acetonitrile:TFA containing 2 mM tris(2-carboxyethyl)phosphine (Thermo Scientific). RP-HPLC spectra were recorded using an Agilent 1260 Infinity system. Injections of 20 µL were made for each sample and analytes were separated by elution on an Agilent Polaris C8-A stationary phase column (4.6×100 mm, 3 µm) at 1.5 mL min^−1 using a linear binary gradient of 10–90% acetonitrile in water with 0.1% (v/v) TFA over 15 minutes at 40°C. Signal intensity for intact endothelin-1 was monitored at 210 nm and relative peak area was determined by manual integration of the baseline. Kinetic parameters were derived from the activity data as described above.

[8] = test system: Somatostatin 14; assay: Steady-state kinetics of peptide cleavage, fluorescence polarisation; type: biochemical; conditions: substrate Somatostatin 14; 37°C, pH 7.4
Experimental: (§3) For detailed kinetic characterisation of peptide cleavage by NEP, a similar assay to that above was used with modifications based on a published method. Peptides were synthesised by Bachem using 9-fluorenylmethyloxycarbonyl solid-phase peptide synthesis and were labelled with a N-terminal 5(6)FAM via a ε-aminocaproic acid linker and a C-terminal biotin via a lysine linker (Table S1). Purified peptides were supplied as trifluoroacetate salts with a purity ≥95%. The assay was performed in a 96-well microtitre plate and contained 50 mM HEPES (pH 7.4), 100 mM NaCl, 0.05% (w/v) BSA (Buffer A), 1–200 µM peptide substrate and 1–500 nM NEP protein. Reactions were incubated at 37°C before being stopped at various time points between 2 and 360 min by transferring 5 µL aliquots to 245 µL Buffer A containing 2 mM 1,10-phenanethroline (Sigma) and 2 µM avidin (Invitrogen). For peptide substrates containing disulphide bonds, 1 mM tris(2-carboxyethyl)phosphine (Thermo Scientific) was added to the stop solution. The fluorescence polarisation of the resulting solution was measured on a Victor plate reader and the amount of substrate cleaved was determined with reference to substrate-only controls with and without avidin. Initial rates were obtained by linear regression of the linear regions of time courses. Enzyme velocity was plotted as a function of substrate concentration and the Michaelis-Menten equation was used to fit the data, giving the parameters kcat and KM.

[9] = test system: Neurokinin B; assay: as above; type: biochemical; conditions: substrate Neurokinin B; 37°C, pH 7.4
Experimental: as §3

[10] = test system: Glucagon; assay: as above; type: biochemical; conditions: substrate Glucagon; 37°C, pH 7.4
Experimental: as §3

[11] = test system: Neurotensin; assay: as above; type: biochemical; conditions: substrate Neurotensin; 37°C, pH 7.4
Experimental: as §3

[12] = test system: Arg-vasopressin; assay: as above; type: biochemical; conditions: substrate Arg-vasopressin; 37°C, pH 7.4
Experimental: as §3

[13] = test system: ANP; assay: as above; type: biochemical; conditions: substrate ANP; 37°C, pH 7.4
Experimental: as §3

[14] = test system: Neurokinin A; assay: as above; type: biochemical; conditions: substrate Neurokinin A; 37°C, pH 7.4
Experimental: as §3

[15] = test system: Angiotensin; assay: as above; type: biochemical; conditions: substrate Angiotensin; 37°C, pH 7.4
Experimental: as §3

[16] = test system: GLP-1; assay: as above; type: biochemical; conditions: substrate GLP-1; 37°C, pH 7.4
Experimental: as §3

[17] = test system: γ-endorphin; assay: as above; type: biochemical; conditions: substrate γ-endorphin; 37°C, pH 7.4
Experimental: as §3

[18] = test system: α-endorphin; assay: as above; type: biochemical; conditions: substrate α-endorphin; 37°C, pH 7.4
Experimental: as §3

[19] = test system: GRP; assay: as above; type: biochemical; conditions: substrate GRP; 37°C, pH 7.4
Experimental: as §3

[20] = test system: Substance P; assay: as above; type: biochemical; conditions: substrate Substance P; 37°C, pH 7.4
Experimental: as §3

[21] = test system: Nociceptin; assay: as above; type: biochemical; conditions: substrate Nociceptin; 37°C, pH 7.4
Experimental: as §3

[22] = test system: Aβ1–40; assay: as above; type: biochemical; conditions: substrate Aβ 1–40; 37°C, pH 7.4
Experimental: as §3

[23] = test system: Bradykinin; assay: as above; type: biochemical; conditions: substrate Bradykinin; 37°C, pH 7.4
Experimental: as §3

T1 sequence (P08473 53-750 G400V/G715K): as the sequence (P08473 53-750) above, with G348V, G663K counted along it

With `CC(C)C[C@H](NP(=O)(O)O[C@@H]1O[C@@H](C)[C@H](O)[C@@H](O)[C@H]1O)C(=O)N[C@@H](Cc1c[nH]c2ccccc12)C(=O)O` [Phosphoramidon, phosphoramidon] the “potency lower on NEPv than for wild-type NEP” value ([1]; NEPv versus wild-type NEP) was greater than 2000 fold, the IC50 ([1]; enzyme NEPv 20 nM, Aβ1–40 substrate 10 µM) was 21000 nM and the IC50 [2] was less than 10 nM. For the same molecule, the IC50 [3] was 610 nM and the IC50 [4] was 100 nM.

B1: wild-type NEP: soluble extracellular domain (amino acids 52–749) of wild type human NEP (neprilysin), tagged, recombinantly expressed (protein, UniProt P08473 52-749, looked up, fragment)
chain: YDDGICKSSDCIKSAARLIQNMDATTEPCTDFFKYACGGWLKRNVIPETSSRYGNFDILRDELEVVLKDVLQEPKTEDIVAVQKAKALYRSCINESAIDSRGGEPLLKLLPDIYGWPVATENWEQKYGASWTAEKAIAQLNSKYGKKVLINLFVGTDDKNSVNHVIHIDQPRLGLPSRDYYECTGIYKEACTAYVDFMISVARLIRQEERLPIDENQLALEMNKVMELEKEIANATAKPEDRNDPMLLYNKMTLAQIQNNFSLEINGKPFSWLNFTNEIMSTVNISITNEEDVVVYAPEYLTKLKPILTKYSARDLQNLMSWRFIMDLVSSLSRTYKESRNAFRKALYGTTSETATWRRCANYVNGNMENAVGRLYVEAAFAGESKHVVEDLIAQIREVFIQTLDDLTWMDAETKKRAEEKALAIKERIGYPDDIVSNDNKLNNEYLELNYKEDEYFENIIQNLKFSQSKQLKKLREKVDKDEWISGAAVVNAFYSSGRNQIVFPAGILQPPFFSAQQSNSLNYGGIGMVIGHEITHGFDDNGRNFNKDGDLVDWWTQQSASNFKEQSQCMVYQYGNFSWDLAGGQHLNGINTLGENIADNGGLGQAYRAYQNYIKKNGEEKLLPGLDLNHKQLFFLNFAQVWCGTYRPEYAVNSIKTDVHSPGNFRIIGTLQNSAEFSEAFHCRKNSYMNPEKKCRV
modifications: extracellular domain tag
notes: soluble extracellular domain (amino acids 52–749) of wild type human NEP (neprilysin), tagged, recombinantly expressed
Work on B1 yielded an EC50 [5] of 243 nM, an EC50 [6] of 144 nM and a Km [7] of 53 ± 10 µM. For the same molecule, the kcat [7] was 0.68 ± 0.06 s⁻¹, the Km [8] was 7.4 ± 0.9 µM and the kcat [8] was 32 ± 1 s⁻¹. It also gave a Km [9] of 22 ± 2 µM, a kcat [9] of 20 ± 0.8 s⁻¹ and a Km [10] of 25 ± 5 µM. For the same molecule, the kcat [10] was 4.5 ± 0.4 s⁻¹, the Km [11] was 16 ± 2 µM and the kcat [11] was 13 ± 0.6 s⁻¹. The Km [12] was 6.2 ± 1 µM, the kcat [12] was 2.8 ± 0.2 s⁻¹ and the Km [13] was 8.4 ± 0.8 µM. The kcat [13] was 7.1 ± 0.2 s⁻¹, the Km [14] was 9.3 ± 1 µM and the kcat [14] was 17 ± 0.7 s⁻¹. It also gave a Km [15] of 8.6 ± 0.9 µM, a kcat [15] of 8.2 ± 0.3 s⁻¹ and a Km [16] of 24 ± 4 µM. The kcat [16] was 3.3 ± 0.3 s⁻¹, the Km [17] was 13 ± 1 µM and the kcat [17] was 4.8 ± 0.2 s⁻¹. The Km [18] was 24 ± 0.5 µM, the kcat [18] was 8.9 ± 0.08 s⁻¹ and the Km [19] was 150 ± 30 µM. The kcat [19] was 26 ± 4 s⁻¹, the Km [20] was 16 ± 1 µM and the kcat [20] was 18 ± 0.6 s⁻¹. The Km [21] was 20 ± 1 µM, the kcat [21] was 11 ± 0.3 s⁻¹ and the Km [22] was 104 ± 20 µM. The kcat [22] was 0.83 ± 0.1 s⁻¹, the Km [23] was 32 ± 5 µM and the kcat [23] was 16 ± 1 s⁻¹.
